Laboratory results reported in publication PMC12056068 (Nature Communications, 2025).

What was measured:
[1] = biological target: T1, GST-SUVH3 (Arabidopsis thaliana, UniProt Q9C5P4 1-669); experiment: pull-down
T1 sequence (looked up): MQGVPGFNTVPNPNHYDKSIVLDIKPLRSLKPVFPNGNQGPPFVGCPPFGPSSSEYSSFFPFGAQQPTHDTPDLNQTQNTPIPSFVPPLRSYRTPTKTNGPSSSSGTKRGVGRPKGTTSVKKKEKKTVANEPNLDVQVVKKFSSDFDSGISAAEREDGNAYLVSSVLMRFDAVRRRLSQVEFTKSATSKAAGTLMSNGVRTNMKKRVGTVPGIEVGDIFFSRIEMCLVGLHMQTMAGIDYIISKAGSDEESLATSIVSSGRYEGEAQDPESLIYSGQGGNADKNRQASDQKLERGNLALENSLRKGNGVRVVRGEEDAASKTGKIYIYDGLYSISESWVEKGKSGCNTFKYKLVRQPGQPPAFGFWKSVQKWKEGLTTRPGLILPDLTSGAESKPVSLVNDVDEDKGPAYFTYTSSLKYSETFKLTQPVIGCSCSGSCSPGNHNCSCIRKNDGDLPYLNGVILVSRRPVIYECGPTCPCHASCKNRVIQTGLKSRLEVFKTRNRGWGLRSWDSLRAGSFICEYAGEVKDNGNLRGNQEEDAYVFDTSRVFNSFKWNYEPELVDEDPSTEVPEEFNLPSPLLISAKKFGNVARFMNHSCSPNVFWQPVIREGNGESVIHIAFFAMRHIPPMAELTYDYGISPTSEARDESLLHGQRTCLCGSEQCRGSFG

[2] = biological target: T2, SUVH1 (Arabidopsis thaliana, UniProt Q9FF80 1-670); experiment: pull-down
T2 sequence (looked up): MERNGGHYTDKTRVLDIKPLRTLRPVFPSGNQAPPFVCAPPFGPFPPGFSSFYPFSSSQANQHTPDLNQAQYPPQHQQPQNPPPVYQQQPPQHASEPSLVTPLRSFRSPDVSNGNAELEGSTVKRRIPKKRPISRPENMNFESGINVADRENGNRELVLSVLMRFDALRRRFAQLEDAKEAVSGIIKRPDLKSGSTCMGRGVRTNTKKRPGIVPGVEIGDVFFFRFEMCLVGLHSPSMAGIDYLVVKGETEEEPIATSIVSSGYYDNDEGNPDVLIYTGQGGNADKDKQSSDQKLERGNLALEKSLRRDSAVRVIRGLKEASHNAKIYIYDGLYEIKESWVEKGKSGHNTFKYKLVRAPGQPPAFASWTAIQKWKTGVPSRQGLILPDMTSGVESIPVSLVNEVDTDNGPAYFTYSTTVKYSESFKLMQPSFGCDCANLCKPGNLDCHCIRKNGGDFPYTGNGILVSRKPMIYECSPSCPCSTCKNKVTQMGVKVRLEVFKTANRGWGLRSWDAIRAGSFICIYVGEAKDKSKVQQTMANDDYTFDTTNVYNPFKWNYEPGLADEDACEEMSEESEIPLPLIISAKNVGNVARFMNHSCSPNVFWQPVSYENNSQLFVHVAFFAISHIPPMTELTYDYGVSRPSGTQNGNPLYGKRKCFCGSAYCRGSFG

binding result [1]: binds | binding result [2]: binds
B1: His-LEC2 (natural protein, Arabidopsis thaliana, UniProt Q1PFR7 1-363, looked up)
chain: MDNFLPFPSSNANSVQELSMDPNNNRSHFTTVPTYDHHQAQPHHFLPPFSYPVEQMAAVMNPQPVYLSECYPQIPVTQTGSEFGSLVGNPCLWQERGGFLDPRMTKMARINRKNAMMRSRNNSSPNSSPSELVDSKRQLMMLNLKNNVQISDKKDSYQQSTFDNKKLRVLCEKELKNSDVGSLGRIVLPKRDAEANLPKLSDKEGIVVQMRDVFSMQSWSFKYKFWSNNKSRMYVLENTGEFVKQNGAEIGDFLTIYEDESKNLYFAMNGNSGKQNEGRENESRERNHYEEAMLDYIPRDEEEASIAMLIGNLNDHYPIPNDLMDLTTDLQHHQATSSSMPPEDHAYVGSSDDQVSFNDFEWW
